Source: US20190016771A1 (Hoffmann-La Roche, published 2019)

Tests used:
[1] = target: T1, human fibroblast activation protein (FAP) on the cell surface (human, UniProt Q12884 1-760); test: flow cytometry on 3T3-huFAP clone 39 cells, detection with PE-labelled anti-human CD137L (4-1BBL) mouse IgG2b, MFI baseline corrected
T1 construct: also called huFAP; NIH/3T3-huFAP clone 39 cells
T1 sequence: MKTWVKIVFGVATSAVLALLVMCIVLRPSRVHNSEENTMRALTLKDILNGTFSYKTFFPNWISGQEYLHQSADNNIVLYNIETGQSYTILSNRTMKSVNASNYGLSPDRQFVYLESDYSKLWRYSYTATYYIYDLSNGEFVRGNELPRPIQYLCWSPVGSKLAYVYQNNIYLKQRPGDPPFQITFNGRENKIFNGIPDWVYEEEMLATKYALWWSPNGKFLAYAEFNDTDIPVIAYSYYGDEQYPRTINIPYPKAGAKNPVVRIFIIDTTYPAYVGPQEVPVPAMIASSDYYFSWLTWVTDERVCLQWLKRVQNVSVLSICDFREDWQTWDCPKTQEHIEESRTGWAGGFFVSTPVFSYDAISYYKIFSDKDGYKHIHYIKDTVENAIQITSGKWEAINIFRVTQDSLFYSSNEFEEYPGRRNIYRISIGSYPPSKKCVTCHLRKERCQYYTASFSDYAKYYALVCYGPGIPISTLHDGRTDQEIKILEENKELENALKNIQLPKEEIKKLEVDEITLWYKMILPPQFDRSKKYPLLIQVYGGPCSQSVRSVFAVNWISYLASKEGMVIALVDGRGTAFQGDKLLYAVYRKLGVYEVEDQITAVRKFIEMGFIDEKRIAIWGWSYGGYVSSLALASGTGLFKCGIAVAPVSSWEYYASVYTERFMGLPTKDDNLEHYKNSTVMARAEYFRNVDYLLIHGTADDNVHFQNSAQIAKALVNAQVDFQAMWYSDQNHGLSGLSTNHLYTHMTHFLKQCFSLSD
Description: (§1) For binding assays on FAP expressing cells, the NIH/3T3-huFAP clone 39 cell line was used. To generate this cell line, NIH/3T3 cells were transfected with human FAP (NIH/3T3-huFAP clone 39). The cells were generated by transfection of mouse embryonic fibroblast NIH/3T3 cells (ATCC CRL-1658) with the expression pETR4921 plasmid encoding human FAP under a CMV promoter. Cells were maintained in the presence of 1.5 μg/mL puromycin (InvivoGen, Cat.-No.: ant-pr-5). 0.1×10⁶ of FAP expressing tumor cells were added to each well of a round-bottom suspension cell 96-well plates (Greiner bio-one, cellstar, Cat.-No. 650185). Cells were washed once with 200 μL/well 4° C. cold FACS buffer and resuspended in 50 μL/well of 4° C. cold FACS buffer containing different concentrations of titrated FAP-targeted or DP47-targeted CMP-trimeric 4-1BB ligand-containing antigen binding molecule. Resuspended cells were incubated for 2 hour at 4° C. […] Cells were washed twice with 200 μL/well cold FACS buffer and resuspended in 100 μL/well FACS buffer containing 0.2 μg/mL DAPI (Santa Cruz Biotec, Cat. No. Sc-3598) and acquired the same day using a 5-laser LSR-Fortessa (BD Bioscience with DIVA software).

[2] = target: T1, human fibroblast activation protein …; test: flow cytometry on 3T3-huFAP clone 39 cells, detection with FITC-labelled anti-huIgG kappa mouse IgG (clone G18-145), MFI baseline corrected
Description: as §1

[3] = target: T1, human fibroblast activation protein …; test: flow cytometry on 3T3-huFAP clone 39 cells, detection with FITC-labelled anti-huIgG (H+L) goat IgG F(ab)2, MFI baseline corrected
Description: as §1

[4] = target: T2, human 4-1BB (CD137) on the cell surface (human, UniProt Q07011 24-255); test: flow cytometry on activated human CD8+ T cells (PBMC), detection with PE-labelled anti-human IgG F(ab')2-specific goat F(ab')2, median fluorescence, baseline corrected
T2 construct: whole, on cells; also called HeLa-huCD137-NF-kB-luciferase reporter cells
Description: Plates were centrifuged 4 minutes with 400×g and at 4° C. and supernatant was discarded. If cells were fixed before acquisition by flow cytometry they were washed once with 200 μL/well DPBS and then stained for 30 min at 4° C. with […] DPBS containing 1:1000 diluted LIVE/DEAD Fixable Aqua Dead Cell Stain (Life technologies, Molecular Probes, Cat-No.: L34957). If cells were acquired the same day and DAPI was used to discriminate dead cells this staining step was skipped. Afterwards cells were washed once with 200 μL cold FACS buffer (DPBS supplied with 2% (v/v) FBS, 5 mM EDTA pH8 (Amresco, Cat. No. E177) and 7.5 mM sodium azide (Sigma-Aldrich S2002)). Next, 50 μL/well of 4° C. cold FACS buffer containing FAP-targeted CMP trimeric 4-1BB ligand-containing antigen binding molecule, DP47-targeted CMP trimeric 4-1BB ligand-containing antigen binding molecule or not-specific binding huIgG1 P329G LALA control antibody were added and cells were incubated for 120 minutes at 4° C. Cells were washed four times with 200 μL/well 4° C. FACS buffer. […]

T2 sequence (Q07011 24-255): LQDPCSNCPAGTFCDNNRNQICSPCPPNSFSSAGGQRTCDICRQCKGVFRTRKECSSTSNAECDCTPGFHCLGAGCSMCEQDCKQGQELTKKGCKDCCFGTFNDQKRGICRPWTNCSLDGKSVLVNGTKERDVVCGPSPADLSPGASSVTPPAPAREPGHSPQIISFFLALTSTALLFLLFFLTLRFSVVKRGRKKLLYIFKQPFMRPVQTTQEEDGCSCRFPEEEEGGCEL

- EC50 (read off the curve) [1]: ~0.4 nM
- EC50 (read off the curve) [2]: ~0.7 nM
- EC50 (read off the curve) [3]: ~2 nM
- EC50 (read off the curve) [4]: ~0.6 nM
B1: FAP(28H1)-targeted hu CMP (CMPtd) trimeric human 4-1BBL(71-254)-containing antigen binding molecule (other)
chain: EVQLLESGGGLVQPGGSLRLSCAASGFTFSSHAMSWVRQAPGKGLEWVSAIWASGEQYYADSVKGRFTISRDNSKNTLYLQMNSLRAEDTAVYYCAKGWLGNFDYWGQGTLVTVSSASTKGPSVFPLAPSSKSTSGGTAALGCLVKDYFPEPVTVSWNSGALTSGVHTFPAVLQSSGLYSLSSVVTVPSSSLGTQTYICNVNHKPSNTKVDKKVEPKSCDGGGGSGGGGSEEDPCACESLVKFQAKVEGLLQALTRKLEAVSKRLAILENTVVSGGGGSGGGGSGGGGSGGGGSREGPELSPDDPAGLLDLRQGMFAQLVAQNVLLIDGPLSWYSDPGLAGVSLTGGLSYKEDTKELVVAKAGVYYVFFQLELRRVVAGEGSGSVSLALHLQPLRSAAGAAALALTVDLPPASSEARNSAFGFQGRLLHLSAGQRLGVHLHTEARARHAWQLTQGATVLGLFRVTPEIPAGLPSPRSE
light: EIVLTQSPGTLSLSPGERATLSCRASQSVSRSYLAWYQQKPGQAPRLLIIGASTRATGIPDRFSGSGSGTDFTLTISRLEPEDFAVYYCQQGQVIPPTFGQGTKVEIKRTVAAPSVFIFPPSDEQLKSGTASVVCLLNNFYPREAKVQWKVDNALQSGNSQESVTEQDSKDSTYSLSSTLTLSKADYEKHKVYACEVTHQGLSSPVTKSFNRGEC
notes: Three fusion chains are covalently linked by disulfides of the huCMP trimerization domain; each pairs with one light chain to form a Fab; also called trimeric FAP-huCMP-4-1BBL
